Molecular target: GST-DENN-4 (C. elegans)
Test: pull-down

fold increase of pull-down with HA-LET-413 added, against without: 3 fold
B1: HA-RAB-10(T23N) (natural protein)
chain: MARRPYDMLFKLLLIGDSGVGKNCILYRFSDDAFNTTFISTIGIDFKIKTIELKGKKIKLQIWDTAGQERFHTITTSYYRGAMGIMLVYDITNAKSFDNIAKWLRNIDEHASEDVVKMILGNKCDMSDRRVVSRERGEKIAQDHGISFHETSAKLNVHVDTAFYDLAEAILAKMPDSTDEQSRDTVNPVQPQRQSSSGGCC

— paper PMC5748983
